Assay results from article PMC10783653 (Cell reports. Physical science, 2023).
Blank lines part the entries; values can stand above or below the compound they belong to.

Key:
[1] = target: RET M918T (Homo sapiens, UniProt P07949, M918T); assay: LIMS-Kinase assay, RET M918T
[2] = target: EGFR L858R (Homo sapiens, UniProt P00533, L858R); type: biochemical; conditions: enzyme optimization; 2.5 nM EGFR L858R, 1 μM peptide, 100 μM ATP, 60 min

RET M918T, sequence (P07949 29-1114 M918T): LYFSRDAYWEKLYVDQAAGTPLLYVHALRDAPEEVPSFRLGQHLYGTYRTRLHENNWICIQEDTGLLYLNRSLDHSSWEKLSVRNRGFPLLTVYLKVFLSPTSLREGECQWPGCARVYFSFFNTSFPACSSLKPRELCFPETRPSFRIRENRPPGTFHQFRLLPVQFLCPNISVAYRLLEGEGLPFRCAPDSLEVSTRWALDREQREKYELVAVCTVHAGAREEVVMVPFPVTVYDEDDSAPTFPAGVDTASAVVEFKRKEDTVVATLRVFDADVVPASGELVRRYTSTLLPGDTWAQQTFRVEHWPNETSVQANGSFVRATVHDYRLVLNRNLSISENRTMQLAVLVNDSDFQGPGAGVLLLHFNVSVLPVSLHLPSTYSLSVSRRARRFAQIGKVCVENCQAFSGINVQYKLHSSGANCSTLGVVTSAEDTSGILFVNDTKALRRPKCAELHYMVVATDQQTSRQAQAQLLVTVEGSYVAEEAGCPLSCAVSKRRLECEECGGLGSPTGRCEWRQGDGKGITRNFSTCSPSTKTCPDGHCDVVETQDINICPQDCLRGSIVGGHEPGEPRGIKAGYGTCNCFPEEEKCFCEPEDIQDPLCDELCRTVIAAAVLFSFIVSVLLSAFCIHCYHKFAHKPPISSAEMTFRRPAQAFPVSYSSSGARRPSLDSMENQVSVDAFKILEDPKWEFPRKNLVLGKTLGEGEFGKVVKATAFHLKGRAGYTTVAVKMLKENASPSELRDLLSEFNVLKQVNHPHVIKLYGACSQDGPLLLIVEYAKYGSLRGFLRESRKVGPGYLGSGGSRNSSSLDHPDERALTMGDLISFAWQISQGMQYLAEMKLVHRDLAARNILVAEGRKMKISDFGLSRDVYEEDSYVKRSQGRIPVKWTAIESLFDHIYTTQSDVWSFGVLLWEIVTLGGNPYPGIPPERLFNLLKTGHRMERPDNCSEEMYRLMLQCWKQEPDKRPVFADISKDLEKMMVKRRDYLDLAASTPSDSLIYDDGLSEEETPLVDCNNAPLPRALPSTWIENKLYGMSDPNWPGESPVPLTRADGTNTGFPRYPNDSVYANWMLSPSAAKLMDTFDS

- substrate converted ([1]; enzyme optimization, 2.5 nM RET M918T, 1 μM peptide, 100 μM ATP, 60 min): Approximately 39%
Compound: MS-Csktide2: kinase substrate peptide, sequence KEEIYFFFG

- substrate converted [2]: approximately 20%
Compound: MS-Csktide1: kinase substrate peptide, sequence KEEIYFFF

- potency in LIMS-Kinase assay compared to previously reported value ([1]; 0.7 nM vs. […]): more than six times higher
Compound: COc1ccc(CN2C3CC2CN(c2ccc(-c4cc(OCC(C)(C)O)cn5ncc(C#N)c45)cn2)C3)cn1 [selpercatinib, reference compound]
